Test results published in patent US7951917 (Genentech, dated 2011).

Biological target: T1, human thrombopoietin receptor, c-Mpl (human, UniProt P40238 26-491)
T1 construct: extracellular domain; Antigen of the library panning; also called MPL (human thrombopoietin receptor tyrosine kinase ECD)
T1 sequence (looked up): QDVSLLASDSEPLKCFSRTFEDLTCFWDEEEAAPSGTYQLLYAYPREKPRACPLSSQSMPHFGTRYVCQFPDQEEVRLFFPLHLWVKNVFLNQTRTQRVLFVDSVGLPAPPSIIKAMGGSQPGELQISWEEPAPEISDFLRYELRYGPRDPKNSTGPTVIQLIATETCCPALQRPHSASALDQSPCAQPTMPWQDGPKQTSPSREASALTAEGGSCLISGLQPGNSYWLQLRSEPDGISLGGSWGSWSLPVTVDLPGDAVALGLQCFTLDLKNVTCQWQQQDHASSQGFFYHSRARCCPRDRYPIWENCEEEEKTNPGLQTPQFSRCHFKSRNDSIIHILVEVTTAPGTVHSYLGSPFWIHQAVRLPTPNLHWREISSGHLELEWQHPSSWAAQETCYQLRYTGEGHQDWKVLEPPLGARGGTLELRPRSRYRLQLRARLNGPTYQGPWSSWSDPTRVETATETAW
Test: scFv from panning of a human scFv phage library

B1: anti-Mpl scFv, 12B5 (scFv)
scFv: QVQLVQSGGGLVRPGGSLSLSCAVSGITLRTYGMHWVRQAPGKGLEWVAGISFDGRSEYYADSVQGRFTISRDSSKNTLYLQMNSLRAEDTAVYYCARGAHYGFDIWGQGTMVTVSSGGGGTGGGGSGGGGSDIQMTQSPSTLSASIGDRVTITCRASEGIYHWLAWYQQKPGKAPKLLIYKASSLASGAPSRFSGSGSGTDFTLTISSLQPDDFATYYCQQYSNYPLTFGGGTKLEIK
B1: binds.
